# Experimental data: paper doi:10.1101/2024.05.21.594841 (bioRxiv, 2024)
# Like-named read-outs stand apart in the source and are kept apart here.
# T1: Scj1p (S. cerevisiae, UniProt P25303 22-377)
# T1 sequence: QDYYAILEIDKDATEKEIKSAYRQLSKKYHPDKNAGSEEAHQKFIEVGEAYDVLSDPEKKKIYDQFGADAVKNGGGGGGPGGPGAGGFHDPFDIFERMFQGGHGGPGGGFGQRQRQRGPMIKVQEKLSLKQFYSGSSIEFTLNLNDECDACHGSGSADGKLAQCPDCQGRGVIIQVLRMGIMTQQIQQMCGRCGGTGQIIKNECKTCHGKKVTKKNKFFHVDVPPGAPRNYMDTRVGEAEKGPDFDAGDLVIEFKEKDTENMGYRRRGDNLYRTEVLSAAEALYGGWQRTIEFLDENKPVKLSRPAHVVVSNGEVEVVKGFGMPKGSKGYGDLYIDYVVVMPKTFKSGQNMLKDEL
# T2: Lto1p (yeast, UniProt P53846 1-162)
# T2 sequence: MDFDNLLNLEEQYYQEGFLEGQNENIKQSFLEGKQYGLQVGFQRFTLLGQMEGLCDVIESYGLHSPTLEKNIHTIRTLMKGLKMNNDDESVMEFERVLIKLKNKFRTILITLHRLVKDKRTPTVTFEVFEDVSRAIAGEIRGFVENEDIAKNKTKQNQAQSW
# T3: Sil1p (S. cerevisiae, UniProt Q08199 20-421)
# T3 sequence: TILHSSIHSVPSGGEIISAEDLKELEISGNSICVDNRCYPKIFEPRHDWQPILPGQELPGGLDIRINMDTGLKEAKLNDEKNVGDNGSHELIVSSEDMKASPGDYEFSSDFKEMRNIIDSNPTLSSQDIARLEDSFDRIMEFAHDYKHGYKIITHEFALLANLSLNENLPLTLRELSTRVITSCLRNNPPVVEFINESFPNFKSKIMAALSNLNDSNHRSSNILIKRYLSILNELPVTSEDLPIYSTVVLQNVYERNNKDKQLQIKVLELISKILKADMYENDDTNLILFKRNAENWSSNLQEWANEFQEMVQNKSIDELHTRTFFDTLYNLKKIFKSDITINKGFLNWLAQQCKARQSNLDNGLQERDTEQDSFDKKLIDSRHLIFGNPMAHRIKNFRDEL
# T4: Mpd1p (S. cerevisiae, UniProt Q12404 22-318)
# T4 sequence: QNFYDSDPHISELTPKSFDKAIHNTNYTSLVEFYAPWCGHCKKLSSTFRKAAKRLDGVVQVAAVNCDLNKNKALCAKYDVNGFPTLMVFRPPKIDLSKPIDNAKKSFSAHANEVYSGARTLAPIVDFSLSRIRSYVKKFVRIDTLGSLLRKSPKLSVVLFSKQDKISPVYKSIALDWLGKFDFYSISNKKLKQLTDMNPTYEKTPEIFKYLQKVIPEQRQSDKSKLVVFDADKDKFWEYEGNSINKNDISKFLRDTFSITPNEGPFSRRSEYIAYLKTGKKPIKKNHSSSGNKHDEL
# T5: Yos9p (S. cerevisiae, UniProt Q99220 22-542)
# T5 sequence: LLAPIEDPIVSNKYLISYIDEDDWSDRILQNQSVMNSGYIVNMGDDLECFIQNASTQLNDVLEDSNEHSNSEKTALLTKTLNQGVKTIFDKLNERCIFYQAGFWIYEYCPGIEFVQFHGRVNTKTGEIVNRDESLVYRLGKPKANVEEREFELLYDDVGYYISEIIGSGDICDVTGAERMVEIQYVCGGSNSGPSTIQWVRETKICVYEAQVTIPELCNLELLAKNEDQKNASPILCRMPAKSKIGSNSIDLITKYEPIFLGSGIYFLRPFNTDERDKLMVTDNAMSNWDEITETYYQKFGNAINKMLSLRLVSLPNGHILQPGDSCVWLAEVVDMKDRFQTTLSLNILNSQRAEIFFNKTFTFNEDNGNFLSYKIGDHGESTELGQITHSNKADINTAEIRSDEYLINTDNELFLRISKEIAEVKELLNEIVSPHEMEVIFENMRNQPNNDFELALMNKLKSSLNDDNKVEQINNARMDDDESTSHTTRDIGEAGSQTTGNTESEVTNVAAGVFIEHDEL
# B1: Sed4p (natural protein)
# chain: MSGNSANYDVGYPIYGAKFINEGTLLVAGGGGQFNSSFPNKITALKVNFQKKKHIRRFREITLDSIDDAPTSLDCNNNLILVGCNELFNDSSMENVNHHLRKFVFEQEHLKFVASIDFNRTTDPSVFTKFVYINQRATVAAIASSEVPTVIRIIDPRNLTENYEIETGREVNDLHFAPNGILLSYITSNSLEVASVRDGNFVARKTDFDKNLVLSNIRFLNDNTLLVAASLSNSDGVSLLKLGVSSKGVKILKTASFMFDLNGITSMDVSPNKKFVALSSNDNLVAIVSVEKLKLVQLVPRVHESTITKVTFSPDSRYLASTSMGNTINVLKLSGTSSSILRNIWKFFLNFVLLVVLAGAIQLGYKHNVHGFIYKHAHDIYKSKFKENTTIDQGSSSYFTINDDYRGITESADIISATDVASDIETEFSSFDTSTMRTTTEDEQKFVWISSSADSQFTSADIPTSASSSSSSSSSSFYEESVTNEPIVSSPTSEITKPLASPTEPNIVEKPSLPLNSESIDLLSSSSNSITEYPEPTPDLEEKLSSLIVEQSESEITTDRESVSKLLSTESPSLSHMPSSSSSSLSLSSSLTTSPTTALSTSTATAVTTTQTNPTNDAANTSFLDNSKPASTREIYKTKIITEVITKIEYRNIPASDSNAEAEQYVTTSSSMLLTPTDTMVSSPVSEIDPIASELERMVETPTHSISIASEFDSVASNLIPNEEILSTSASQDSISSHPSTFSDSSITSGFQSIEVSTVTSSVLASESIPSISDSTFSKFHSISEPVSSAIVETATSSFSKTETKTSRVIAFSTEDSERSSALIDNSEYTSVLADNLEPTSVLADNSEPTSVLADSSEPTSVFTDAVQSPKTSVGQSSLSESTNIEGTSMASMIFSSSGASIGALSDIGKGTLSVESASSTVAQPMPGVTTTAPSFVSSPHKISASSIDASGFVQKEIMIEVQSSKDSSEAFGVRHKISENVNTPVSRMLTTEMQASGTVDVTEDVSLSSEVISALNVEITSLPNPVAPPQTIAAPLNNNSNTNIVNDDNAVAGTVNYAGLHDEL
# B2: Eug1p (natural protein)
# chain: TPGSDLLVLTEKKFKSFIESHPLVLVEFFAPWCLHSQILRPHLEEAASILKEHNVPVVQIDCEANSMVCLQQTINTYPTLKIFKNGRIFDGQVYRGVKITDEITQYMIQLYEASVIYLNSEDEIQPYLENATLPVVINRGLTGLNETYQEVALDLAEDYVFLSLLDSEDKSLSIHLPNTTEPILFDGNVDSLVGNSVALTQWLKVVILPYFTDIEPDLFPKYISSNLPLAYFFYTSEEELEDYTDLFTQLGKENRGQINFIALNSTMFPHHVRFLNMREQFPLFAIHNMINNLKYGLPQLPEEEYAKLEKPQPLDRDMIVQLVKDYREGTAKPIVKSEEIPKEQKSNVYKIVGKTHDDIVHDDDKDVLVKYYATWCIHSKRFAPIYEEIANVLASDESVRDKILIAEVDSGANDILSFPVTGYPTIALYPAGNNSKPIIFNKIRNLEDVFEFIKESGTHHIDGQAIYDKLHQAKDSEVSTEDTVHDEL
# B3: Yae1p (natural protein)
# chain: MSNTWDDVWASDSDVETERSPDLVKLRENHSKRGYLDGIVSSKEEKLQEGFNDGFPTGAKLGKQVGIIMGILLGLRTRFGDEDEDLSKAYIDAQKELRINKVLSKSIFDPNFDLQEKHPLITKWTDIANTYCEKYHVPSIQ
# B4: Pdi1p (natural protein)
# chain: PEDSAVVKLATDSFNEYIQSHDLVLAEFFAPWCGHCKNMAPEYVKAAETLVEKNITLAQIDCTENQDLCMEHNIPGFPSLKIFKNSDVNNSIDYEGPRTAEAIVQFMIKQSQPAVAVVADLPAYLANETFVTPVIVQSGKIDADFNATFYSMANKHFNDYDFVSAENADDDFKLSIYLPSAMDEPVVYNGKKADIADADVFEKWLQVEALPYFGEIDGSVFAQYVESGLPLGYLFYNDEEELEEYKPLFTELAKKNRGLMNFVSIDARKFGRHAGNLNMKEQFPLFAIHDMTEDLKYGLPQLSEEAFDELSDKIVLESKAIESLVKDFLKGDASPIVKSQEIFENQDSSVFQLVGKNHDEIVNDPKKDVLVLYYAPWCGHCKRLAPTYQELADTYANATSDVLIAKLDHTENDVRGVVIEGYPTIVLYPGGKKSESVVYQGSRSLDSLFDFIKENGHFDVDGKALYEEAQEKAAEEADADAELADEEDAIHDEL
# B5: Sec20p (natural protein)
# chain: MVVTFLQDLEVLQDALLNNLQKLSAISRRKESGESKHDNKDSFAAIANEHNDEEEEIEFEDLVNIIESKVSDFESVLKCSIVEMTYKYPELKLQWEKSPRYDQCDKLHIVKLDKQMNEDIYAQLVEELDFVLQFVDWFYCYRLKVKEILRQHHKRDLAWNDEKRDRAIKFHAVDYDKLHQGTSSSSSLTSTSMEKASTREKLLSKTKQLTNNLVRGNQILQSGILQSDLNLDELRAQTNSLTQIDDKYTQFETVFKKTADLVKVLENASHQEKRDVYLSLGFLLCCVSWVLWRRIFKLPVKLGLWLLFKFFKGILVTLGLVKSYAGSSSSLQAPSLVLNAPILATTTTSSATSVEPFASVSAVSSIQRAVDEAVDRIVSHDEL
# B6: Kar2p (natural protein)
# chain: not shown
# Columns and labels:
# Assay in all cases: split reporter
# [1] = target: B6
# [2] = target: T1, Scj1p
# [3] = target: T2, Lto1p
# [4] = target: T6, Cpr5p (S. cerevisiae, UniProt P35176 23-225)
# T6 sequence (P35176 23-225): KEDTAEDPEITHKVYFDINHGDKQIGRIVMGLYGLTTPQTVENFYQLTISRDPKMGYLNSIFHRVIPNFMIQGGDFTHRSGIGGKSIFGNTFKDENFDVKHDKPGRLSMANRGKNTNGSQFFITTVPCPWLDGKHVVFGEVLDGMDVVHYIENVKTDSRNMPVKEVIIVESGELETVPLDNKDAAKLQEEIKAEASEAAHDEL
# [5] = target: T6, Cpr5p; remark: listed apart in the source
# [6] = target: T3, Sil1p
# [7] = target: B6; remark: listed apart in the source
# [8] = target: T4, Mpd1p
# [9] = target: T4, Mpd1p; remark: listed apart in the source
# [10] = target: T5, Yos9p
normalized interacting score [2],normalized interacting score [4],normalized interacting score [5],normalized interacting score [6],Binder,further results
–,–,–,–,B1,normalized interacting score [1]: 34%
5%,–,–,–,B2,–
–,–,–,–,B3,normalized interacting score [3]: 96%
–,18%,32%,–,B4,–
–,–,26%,32%,B5,normalized interacting score [7]: 42%
10%,31%,78%,35%,B6,normalized interacting score [8]: 65%; normalized interacting score [9]: 86%; normalized interacting score [10]: 20%
